From patent publication US20200347127A1 (CRESCENDO BIOLOGICS, published 2020)
Read-outs that look alike come from different tables or passages of the source.

How the values were obtained:
[1] = target: T1, recombinant human IL-17A (human, UniProt Q16552 24-155); assay: SPR (BIAcore T200), IL-17A coupled to CM5 chip, single-cycle kinetics
T1 construct: Bought recombinant protein (Peprotech AF-200-17); also called Peprotech AF-200-17
Description: (§1) VH binding kinetics were then determined from the (blank subtracted) sensorgram traces using 1:1 binding models and BIAevaluation software.

[2] = target: T1, recombinant human IL-17A; assay: cell-based or functional assay
[3] = target: T1, recombinant human IL-17A; assay: competition ELISA, IL-17A binding to coated IL-17RA-Fc
Description: (§2) Following washing of excess coating antigen, as described above, the wells of the plate were incubated with 3% skimmed milk powder/PBS to block non-specific protein interactions. […] The mixture was then transferred to the assay plate and incubated for 1 hour at room temperature.
(§3) Where appropriate, curve fitting in PRISM was used to determine the EC₅₀ of inhibiting VH.

[4] = target: T1, recombinant human IL-17A; assay: competition ELISA, IL-17A binding to coated IL-17RA-Fc (FIG. 9B); FIG. 9B
Description: as §2, §3

[5] = target: T1, recombinant human IL-17A; assay: cell-based or functional assay; remark: listed apart in the source
[6] = target: T1, recombinant human IL-17A; assay: SPR (BIAcore T200), IL-17A coupled to CM5 chip, single-cycle kinetics; remark: listed apart in the source
Description: as §1

[7] = target: T2, IL-17F (UniProt Q96PD4 31-163, limits assumed); assay: specificity ELISA on coated antigen, VH concentration not given
T2 sequence (looked up): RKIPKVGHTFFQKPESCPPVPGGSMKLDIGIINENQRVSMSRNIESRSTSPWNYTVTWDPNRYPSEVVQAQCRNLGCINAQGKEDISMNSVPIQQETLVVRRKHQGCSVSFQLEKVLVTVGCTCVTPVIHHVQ

[8] = target: T3, IL17E; assay: as above
T3 construct: also called IL-25
T3 chain: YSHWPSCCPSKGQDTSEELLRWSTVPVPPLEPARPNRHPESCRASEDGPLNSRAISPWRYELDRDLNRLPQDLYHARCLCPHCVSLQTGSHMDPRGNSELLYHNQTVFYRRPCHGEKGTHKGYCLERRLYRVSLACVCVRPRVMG

[9] = target: T4, IL-17C (UniProt Q9P0M4 19-197, limits assumed); assay: as above
T4 sequence (looked up): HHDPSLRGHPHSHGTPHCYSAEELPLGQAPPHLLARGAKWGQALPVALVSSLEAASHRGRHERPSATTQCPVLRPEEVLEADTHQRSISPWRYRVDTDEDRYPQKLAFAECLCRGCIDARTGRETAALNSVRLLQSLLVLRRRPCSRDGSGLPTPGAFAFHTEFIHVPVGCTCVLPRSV

T1 sequence (Q16552 24-155): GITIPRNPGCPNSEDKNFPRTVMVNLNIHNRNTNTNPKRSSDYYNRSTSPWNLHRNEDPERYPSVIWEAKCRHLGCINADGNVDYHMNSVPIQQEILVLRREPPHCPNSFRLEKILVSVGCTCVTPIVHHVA

B1: VH 1.1.1 (clone 1.1 expressed from phagemid vector: with linker residues and His tag) (VHH)
VHH: EVQLVESGGGLVQPGGSLRLSCAASGFTFSSYSMYWVRQAPGKGLEWVANIKQDGSEKYYVDSVKGRFTISRDNAKNSLFLQMNSLRAEDTAVYYCAKGEILPLHFDYWGQGTLVTVSS
notes: Human single VH domain; also called Family 1 (clone 1.1)
[1]
  Kd: 5 nM
  koff: 0.00149 s⁻¹
  kon: 296000 M⁻¹ s⁻¹
[2]
  Cell assay IC50 (nM), IL-17A-induced IL6 release from HT1080: 13 nM
[3]
  IC50: 53 nM
[4]
  IC50: 29 nM
[5]
  Cell assay IC50 (nM), IL-17A-induced IL6 release from HT1080: 13 nM
[6]
  Kd: 5 nM
  koff: 0.00149 s⁻¹
  kon: 296000 M⁻¹ s⁻¹
[7]
  binding result: no binding
[8]
  binding result: no binding
[9]
  binding result: no binding
